Results published in patent US20250197451A1 (CAPITAL MEDICAL UNIVERSITY SCHOOL OF STOMATOLOGY, published 2025).

Each binder was assayed against T1, biotin-labelled EZH2 protein (UniProt Q15910 1-746, limits assumed, biotin label (EZ-link NHS-PEO4-Biotinylation kit)) (assay: KDM2B peptide array probed with biotin-EZH2 1 ug/ml, SA-HRP/ECL;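 note: Background-corrected optical density of each spot on the membrane, given as percent of the brightest spot (100%), color developed for 5 minutes; 100% is the highest background-corrected spot optical density on the membrane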).
T1 construct: Probe in solution (1 ug/ml) on the KDM2B peptide microarray; also called NHS-PEO4-Biotinylation-labelled EZH2 protein; recombinant protein
T1 sequence (Q15910 whole entry): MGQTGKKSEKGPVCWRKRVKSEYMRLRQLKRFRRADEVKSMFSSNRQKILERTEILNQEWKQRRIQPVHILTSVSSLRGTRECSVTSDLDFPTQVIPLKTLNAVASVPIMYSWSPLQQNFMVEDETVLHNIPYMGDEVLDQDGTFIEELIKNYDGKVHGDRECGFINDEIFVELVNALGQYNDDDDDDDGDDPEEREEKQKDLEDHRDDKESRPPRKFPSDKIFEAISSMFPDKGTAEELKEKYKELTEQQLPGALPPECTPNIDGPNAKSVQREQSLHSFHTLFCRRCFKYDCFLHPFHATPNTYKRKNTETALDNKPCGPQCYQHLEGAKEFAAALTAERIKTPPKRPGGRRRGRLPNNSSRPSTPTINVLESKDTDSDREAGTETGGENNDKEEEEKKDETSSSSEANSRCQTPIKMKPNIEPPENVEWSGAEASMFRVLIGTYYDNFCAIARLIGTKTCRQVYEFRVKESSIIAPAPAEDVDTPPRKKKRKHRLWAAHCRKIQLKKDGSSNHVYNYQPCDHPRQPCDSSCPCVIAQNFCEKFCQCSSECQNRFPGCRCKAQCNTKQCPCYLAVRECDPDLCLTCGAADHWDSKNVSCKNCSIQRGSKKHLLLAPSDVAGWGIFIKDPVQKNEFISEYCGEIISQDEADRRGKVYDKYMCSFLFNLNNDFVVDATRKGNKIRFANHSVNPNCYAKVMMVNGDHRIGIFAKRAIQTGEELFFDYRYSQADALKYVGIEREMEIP
Method: After blocking, the polypeptide microarray was incubated with biotin-labeled target protein for hybridization, visualized with the chemical chromogenic substrate and imaged using a Chempchemi digital imager. The image of colored polypeptide microarray was analyzed for the optical density of the colored points. Particularly, the optical density of each colored point was calculated using the optical density of the respective surrounding background as a reference for background correction. The highest optical density value of the colored point on membrane was set to 100%, and the optical density value of the remaining colored points was converted into percentages relative to the highest value. The points with an optical density percentage of more than 30% on the polypeptide membrane and also with an optical density percentage of less than 30% on the negative membrane were defined as positive colored points.
For the hybridization experiment, a solution of NHS-PEO4-Biotinylation-labelled EZH2 protein (1 μg/ml) was used for the hybridization of the polypeptide microarray. Streptavidin-HRP was used to amplify the reaction signal according to the experimental procedure and conditions described above, and the time of color development was 5 minutes.

Intensity (%)	Binder
1.91%	LRSPPRVISRPPPSV [peptide 204]
0%	HREVWMAVFSYLSHQ [peptide 214]
1.18%	QWVEGLKDAQMRDLL [peptide 237]
1%	MRDLLSPPTDNRPGQ [peptide 239]
0%	LRRFKQEPEDELPEA [peptide 178]
2.02%	SCPLLRTLDVQWVEG [peptide 235]
0%	LPNKELSRELSKELN [peptide 189]
0%	TEGAEGPEEKKKVKM [peptide 185]
0.19%	DLCVCMRVCRTWNRW [peptide 217]
2.1%	RTLDVQWVEGLKDAQ [peptide 236]
0%	PPDSLPLDDGAAHVM [peptide 211]
4.09%	LWTRIDLNHCKSITP [peptide 221]
0%	GPEEKKKVKMRRKRR [peptide 186]
2.29%	QPIKSEPESEGEEPK [peptide 195]
0%	LANKPLRRFKQEPED [peptide 177]
1.28%	YVQREALRVPLIFRE [peptide 20]
11.8%	AAHVMHREVWMAVFS [peptide 213]
2.93%	MRVCRTWNRWCCDKR [peptide 218]
0.51%	PVSLDLSWTNISKKQ [peptide 226]
0.62%	LKDAQMRDLLSPPTD [peptide 238]
34.8%	WIAVSALCSSSCPLL [peptide 233]
2.54%	LIFREKDGLGIKMPD [peptide 22]
0.8%	RRKRRLPNKELSREL [peptide 188]
0%	LMLSGIIRRQPVSLD [peptide 224]
0%	SPPKCIQMERHVIRP [peptide 207]
100%	LRDLVLSGCSWIAVS [peptide 231]

Intensity (%)	Binder
0%	PLDDGAAHVMHREVW [peptide 212]
0%	IKMPDPDFTVRDVKL [peptide 24]
0.95%	KKVKMRRKRRLPNKE [peptide 187]
0.19%	HEIQRTENSLANENQ [peptide 192]
21.1%	ALRVPLIFREKDGLG [peptide 21]
0%	GEEPKRPPGICERPH [peptide 197]
0%	KDGLGIKMPDPDFTV [peptide 23]
0%	YLSHQDLCVCMRVCR [peptide 216]
0%	QLGPSLRSPPRVISR [peptide 203]
0.18%	CERPHRFSKGLNGTP [peptide 199]
1.04%	EPESEGEEPKRPPGI [peptide 196]
0%	DFNYEYVQREALRVP [peptide 19]
95.4%	LSGCSWIAVSALCSS [peptide 232]
4.32%	CCDKRLWTRIDLNHC [peptide 220]
1.29%	PPPSVSPPKCIQMER [peptide 206]
0.39%	QEPEDELPEAPPKTR [peptide 179]
0.91%	RFSKGLNGTPRELRH [peptide 200]
0%	ELPEAPPKTRESDHS [peptide 180]
0%	DLNHCKSITPLMLSG [peptide 222]
3.59%	ALCSSSCPLLRTLDV [peptide 234]
0%	TENSLANENQQPIKS [peptide 193]
2.82%	MAVFSYLSHQDLCVC [peptide 215]
0%	ANENQQPIKSEPESE [peptide 194]
7.03%	NRLPGLRDLVLSGCS [peptide 230]
0%	SKELNHEIQRTENSL [peptide 191]
0.26%	LSRELSKELNHEIQR [peptide 190]
